One experiment concerns GFP-14-3-3β. The experiment is described as follows: GFP-14-3-3β co-IP with LC-MS/MS, untreated GFP-14-3-3β versus GFP control (14-3-3 interactome). The class given is binding, human. The note with it: untreated vs GFP; label-free quantification. Here is the method:
(§1) HeLa Kyoto cells expressing transiently transfected pEGFP(C1)-14-3-3β or pEGFP(C1) control plasmid, were incubated with 20 nM Calyculin A (# 9902 S, Cell Signaling Technology) for 12 min. Cells were washed twice on ice with cold PBS and after addition of 500 µL lysis buffer (100 mM NaCl, 10 mM Tris, 0.1% IGEPAL, 1 mM EDTA, 1 mM EGTA, 20 nM Calyculin A, 1x cOmplete Mini protease inhibitor cocktail (Sigma), 1 mM DTT, 1 mM MnCl2) cells were scraped from plates, lysed by 10 pushes through an injection needle (21 G, BD) and the insoluble fraction was pelleted by centrifugation (10 min, 10^4 rcf, 4 °C). Supernatants were then subjected to incubation with 1 µM recombinant phosphatase or buffer for 1 h at 30 °C. Next, we subjected samples to immunoprecipitation using α-GFP nanobodies covalently coupled to agarose beads (2 h, 4 °C, obtained from the EMBL PEPcore Core Facility). Beads were then washed three times with lysis buffer and samples were eluted in 1x LDS sample buffer (Thermo Fisher Scientific) by heating to 70 °C for 10 min.
(§2) The samples were then reduced with 25 mM dithiothreitol (10 min at 70 °C) and alkylated with 55 mM chloroacetamide (room temperature, 30 min, in the dark). Proteins were run on a precast 4–12% NuPAGE gel (ThermoFisher Scientific) for about 1 cm to concentrate the sample prior to in-gel tryptic digestion, which was performed according to the standard procedures. The peptides obtained were dried to completeness and resuspended in 12 µL of buffer A (0.1% FA), and 5 µL of sample were injected per MS measurement. The experiment was carried out in three independent replicates.
(§3) The samples were analyzed by LC-MS/MS on a Dionex Ultimate 3000 nano-HPLC coupled online to a Fusion Lumos Tribrid mass spectrometer (Thermo Fisher Scientific). Peptides were delivered to a trap column (75 µm × 2 cm, packed in-house with 5 µm C18 resin; Reprosil PUR AQ, Dr. Maisch) and washed using 0.1% FA at a flow rate of 5 µL/min for 10 min. Subsequently, peptides were transferred to an analytical column (75 µm × 45 cm, packed in-house with 3 µm C18 resin; Reprosil Gold) applying a flow rate of 300 nL/min and separated using a 60 min linear gradient from 4% to 32% LC solvent B (0.1% FA, 5% DMSO in ACN) in LC solvent A (0.1% FA in 5% DMSO). The eluate from the analytical column was sprayed via a stainless steel emitter (Thermo Fisher Scientific) at a source voltage of 2.1 kV into the mass spectrometer. The transfer capillary was heated to 275 °C. The Fusion Lumos was operated in positive ionization mode and data-dependent acquisition (DDA), automatically switching between MS1 and MS2 spectrum acquisition. Full scan MS1 spectra were recorded in the Orbitrap from 360 to 1300 m/z at a resolution of 60k (automatic gain control (AGC) target value of 4e5 charges, maximum injection time (maxIT) of 50 ms). Up to 20 peptide precursors were isolated (isolation window, 1.7 m/z; maximum injection time, 25 ms; and AGC value, 1e5), fragmented by high-energy collision-induced dissociation (HCD) using 30% normalized collision energy (NCE), and analyzed at a resolution of 15k in the Orbitrap. Precursor ions that were singly charged, unassigned, or with charge states >6+ were excluded. The dynamic exclusion duration of fragmented precursor ions was 20 s.
(§4) Peptide and protein identification and LFQ were performed using MaxQuant software (version 1.6.1.0)[64] by searching the data against all canonical protein sequences as annotated in the Swissprot reference database (human proteins only, 20193 entries, downloaded 22 March 2016, internally annotated with PFAM domains) using the embedded search engine Andromeda[65]. The MaxQuant search was performed using two variable modifications; oxidation of methionine and N-terminal protein acetylation. Carbamidomethylation on cysteines was specified as a fixed modification. Trypsin (Trypsin/P) was specified as the proteolytic enzyme with up to two allowed missed cleavage sites.

Experiment [1] concerns GFP-14-3-3β and its binding proteins. Briefly: GFP-14-3-3β co-IP with LC-MS/MS label-free quantification, untreated versus PP1c-treated. The arrangement: species or system human. To be noted: PP1 vs untreated; label-free quantification. Here is the method: as §1, §2, §3, §4

B1: LGALS3BP (protein, UniProt Q08380 19-585, looked up)
Galectin-3-binding protein: VNDGDMRLADGGATNQGRVEIFYRGQWGTVCDNLWDLTDASVVCRALGFENATQALGRAAFGQGSGPIMLDEVQCTGTEASLADCKSLGWLKSNCRHERDAGVVCTNETRSTHTLDLSRELSEALGQIFDSQRGCDLSISVNVQGEDALGFCGHTVILTANLEAQALWKEPGSNVTMSVDAECVPMVRDLLRYFYSRRIDITLSSVKCFHKLASAYGARQLQGYCASLFAILLPQDPSFQMPLDLYAYAVATGDALLEKLCLQFLAWNFEALTQAEAWPSVPTDLLQLLLPRSDLAVPSELALLKAVDTWSWGERASHEEVEGLVEKIRFPMMLPEELFELQFNLSLYWSHEALFQKKTLQALEFHTVPFQLLARYKGLNLTEDTYKPRIYTSPTWSAFVTDSSWSARKSQLVYQSRRGPLVKYSSDYFQAPSDYRYYPYQSFQTPQHPSFLFQDKRVSWSLVYLPTIQSCWNYGFSCSSDELPVLGLTKSGGSDRTIAYENKALMLCEGLFVADVTDFEGWKAAIPSALDTNSSKSTSSFPCPAGHFNGFRTVIRPFYLTNSSGVD
Regarding B1, the “Difference (log2), untreated vs GFP” value in the experiment with GFP-14-3-3β was -0.5352 log2. Besides, in experiment [1], the “Difference (log2), PP1 vs untreated” value turned out to be 1.074 log2.

B2: BANF1 (protein, UniProt O75531 1-89, looked up)
Barrier-to-autointegration …: MTTSQKHRDFVAEPMGEKPVGSLAGIGEVLGKKLEERGFDKAYVVLGQFLVLKKDEDLFREWLKDTCGANAKQSRDCFGCLREWCDAFL
Regarding B2, in the experiment with GFP-14-3-3β, the “Difference (log2), untreated vs GFP” value is recorded as -2.499 log2. The “Difference (log2), PP1 vs untreated” value in experiment [1] amounted to 1.068 log2.

B3: TMEM43 (protein, UniProt Q9BTV4 2-400, looked up)
Transmembrane protein 43: AANYSSTSTRREHVKVKTSSQPGFLERLSETSGGMFVGLMAFLLSFYLIFTNEGRALKTATSLAEGLSLVVSPDSIHSVAPENEGRLVHIIGALRTSKLLSDPNYGVHLPAVKLRRHVEMYQWVETEESREYTEDGQVKKETRYSYNTEWRSEIINSKNFDREIGHKNPSAMAVESFMATAPFVQIGRFFLSSGLIDKVDNFKSLSLSKLEDPHVDIIRRGDFFYHSENPKYPEVGDLRVSFSYAGLSGDDPDLGPAHVVTVIARQRGDQLVPFSTKSGDTLLLLHHGDFSAEEVFHRELRSNSMKTWGLRAAGWMAMFMGLNLMTRILYTLVDWFPVFRDLVNIGLKAFAFCVATSLTLLTVAAGWLFYRPLWALLIAGLALVPILVARTRVPAKKLE
As to B3, the “Difference (log2), untreated vs GFP” value in the experiment on GFP-14-3-3β was -0.2983 log2. The “Difference (log2), PP1 vs untreated” value in experiment [1] is listed as 1.071 log2.

B4: DARS (protein, UniProt P14868 1-501, looked up)
Aspartate--tRNA ligase, …: MPSASASRKSQEKPREIMDAAEDYAKERYGISSMIQSQEKPDRVLVRVRDLTIQKADEVVWVRARVHTSRAKGKQCFLVLRQQQFNVQALVAVGDHASKQMVKFAANINKESIVDVEGVVRKVNQKIGSCTQQDVELHVQKIYVISLAEPRLPLQLDDAVRPEAEGEEEGRATVNQDTRLDNRVIDLRTSTSQAVFRLQSGICHLFRETLINKGFVEIQTPKIISAASEGGANVFTVSYFKNNAYLAQSPQLYKQMCICADFEKVFSIGPVFRAEDSNTHRHLTEFVGLDIEMAFNYHYHEVMEEIADTMVQIFKGLQERFQTEIQTVNKQFPCEPFKFLEPTLRLEYCEALAMLREAGVEMGDEDDLSTPNEKLLGHLVKEKYDTDFYILDKYPLAVRPFYTMPDPRNPKQSNSYDMFMRGEEILSGAQRIHDPQLLTERALHHGIDLEKIKAYIDSFRFGAPPHAGGGIGLERVTMLFLGLHNVRQTSMFPRDPKRLTP
As for B4, the “Difference (log2), untreated vs GFP” value in the experiment on GFP-14-3-3β is reported as -1.63 log2. The “Difference (log2), PP1 vs untreated” value in experiment [1] amounted to 1.065 log2.

B5: ABCD3 (protein, UniProt P28288 1-659, looked up)
ATP-binding cassette …: MAAFSKYLTARNSSLAGAAFLLLCLLHKRRRALGLHGKKSGKPPLQNNEKEGKKERAVVDKVFFSRLIQILKIMVPRTFCKETGYLVLIAVMLVSRTYCDVWMIQNGTLIESGIIGRSRKDFKRYLLNFIAAMPLISLVNNFLKYGLNELKLCFRVRLTKYLYEEYLQAFTYYKMGNLDNRIANPDQLLTQDVEKFCNSVVDLYSNLSKPFLDIVLYIFKLTSAIGAQGPASMMAYLVVSGLFLTRLRRPIGKMTITEQKYEGEYRYVNSRLITNSEEIAFYNGNKREKQTVHSVFRKLVEHLHNFILFRFSMGFIDSIIAKYLATVVGYLVVSRPFLDLSHPRHLKSTHSELLEDYYQSGRMLLRMSQALGRIVLAGREMTRLAGFTARITELMQVLKDLNHGKYERTMVSQQEKGIEGVQVIPLIPGAGEIIIADNIIKFDHVPLATPNGDVLIRDLNFEVRSGANVLICGPNGCGKSSLFRVLGELWPLFGGRLTKPERGKLFYVPQRPYMTLGTLRDQVIYPDGREDQKRKGISDLVLKEYLDNVQLGHILEREGGWDSVQDWMDVLSGGEKQRMAMARLFYHKPQFAILDECTSAVSVDVEGYIYSHCRKVGITLFTVSHRKSLWKHHEYYLHMDGRGNYEFKQITEDTVEFGS
Take B5: in the experiment on GFP-14-3-3β, the “Difference (log2), untreated vs GFP” value was -0.7267 log2. The “Difference (log2), PP1 vs untreated” value in experiment [1] was 1.116 log2.

B6: RTCB (protein, UniProt Q9Y3I0 1-505, looked up)
RNA-splicing ligase RtcB …: MSRSYNDELQFLEKINKNCWRIKKGFVPNMQVEGVFYVNDALEKLMFEELRNACRGGGVGGFLPAMKQIGNVAALPGIVHRSIGLPDVHSGYGFAIGNMAAFDMNDPEAVVSPGGVGFDINCGVRLLRTNLDESDVQPVKEQLAQAMFDHIPVGVGSKGVIPMNAKDLEEALEMGVDWSLREGYAWAEDKEHCEEYGRMLQADPNKVSARAKKRGLPQLGTLGAGNHYAEIQVVDEIFNEYAAKKMGIDHKGQVCVMIHSGSRGLGHQVATDALVAMEKAMKRDKIIVNDRQLACARIASPEGQDYLKGMAAAGNYAWVNRSSMTFLTRQAFAKVFNTTPDDLDLHVIYDVSHNIAKVEQHVVDGKERTLLVHRKGSTRAFPPHHPLIAVDYQLTGQPVLIGGTMGTCSYVLTGTEQGMTETFGTTCHGAGRALSRAKSRRNLDFQDVLDKLADMGIAIRVASPKLVMEEAPESYKNVTDVVNTCHDAGISKKAIKLRPIAVIKG
For the molecule B6, the “Difference (log2), untreated vs GFP” value with GFP-14-3-3β is -0.6754 log2. In addition, the “Difference (log2), PP1 vs untreated” value in experiment [1] is 1.104 log2.

B7: CGN (protein, UniProt Q9P2M7 1-1203, looked up)
Cingulin: MEQAPNMAEPRGPVDHGVQIRFITEPVSGAEMGTLRRGGRRPAKDARASTYGVAVRVQGIAGQPFVVLNSGEKGGDSFGVQIKGANDQGASGALSSDLELPENPYSQVKGFPAPSQSSTSDEEPGAYWNGKLLRSHSQASLAGPGPVDPSNRSNSMLELAPKVASPGSTIDTAPLSSVDSLINKFDSQLGGQARGRTGRRTRMLPPEQRKRSKSLDSRLPRDTFEERERQSTNHWTSSTKYDNHVGTSKQPAQSQNLSPLSGFSRSRQTQDWVLQSFEEPRRSAQDPTMLQFKSTPDLLRDQQEAAPPGSVDHMKATIYGILREGSSESETSVRRKVSLVLEKMQPLVMVSSGSTKAVAGQGELTRKVEELQRKLDEEVKKRQKLEPSQVGLERQLEEKTEECSRLQELLERRKGEAQQSNKELQNMKRLLDQGEDLRHGLETQVMELQNKLKHVQGPEPAKEVLLKDLLETRELLEEVLEGKQRVEEQLRLRERELTALKGALKEEVASRDQEVEHVRQQYQRDTEQLRRSMQDATQDHAVLEAERQKMSALVRGLQRELEETSEETGHWQSMFQKNKEDLRATKQELLQLRMEKEEMEEELGEKIEVLQRELEQARASAGDTRQVEVLKKELLRTQEELKELQAERQSQEVAGRHRDRELEKQLAVLRVEADRGRELEEQNLQLQKTLQQLRQDCEEASKAKMVAEAEATVLGQRRAAVETTLRETQEENDEFRRRILGLEQQLKETRGLVDGGEAVEARLRDKLQRLEAEKQQLEEALNASQEEEGSLAAAKRALEARLEEAQRGLARLGQEQQTLNRALEEEGKQREVLRRGKAELEEQKRLLDRTVDRLNKELEKIGEDSKQALQQLQAQLEDYKEKARREVADAQRQAKDWASEAEKTSGGLSRLQDEIQRLRQALQASQAERDTARLDKELLAQRLQGLEQEAENKKRSQDDRARQLKGLEEKVSRLETELDEEKNTVELLTDRVNRGRDQVDQLRTELMQERSARQDLECDKISLERQNKDLKTRLASSEGFQKPSASLSQLESQNQLLQERLQAEEREKTVLQSTNRKLERKVKELSIQIEDERQHVNDQKDQLSLRVKALKRQVDEAEEEIERLDGLRKKAQREVEEQHEVNEQLQARIKSLEKDSWRKASRSAAESALKNEGLSSDEEFDSVYDPSSIASLLTESNLQTSSC
Consider B7, for which the “Difference (log2), untreated vs GFP” value in the experiment with GFP-14-3-3β was determined as 1.896 log2. The “Difference (log2), PP1 vs untreated” value in experiment [1] came out at 1.065 log2.

These data come from paper PMC7367873, “Dissecting the sequence determinants for dephosphorylation by the catalytic subunits of phosphatases PP1 and PP2A” (Nature Communications, 2020).
